# Source: publication PMC3751045
# B1: Err1 from T. reesei (GLD1) (Trichoderma reesei) (protein)
# chain: MSSGRTVTLNTGYKIPQIGYGTWQAAPGEVGAGVFEALKVGYRHLDLAKVYGNQKEVGEGIKKALAEVPGLKREDIFITSKLWNNSHKPEDVEPALDDTLAELGLDYLDLYLIHWPVAFAPGADLFPKSEDGSEVQLNQNVSIVQTWKAMTELPKSKVRSVGVSNFTIEHLDAVIEATGVVPAVNQIERHPRLPNQPLIDYCAKKGIIITAYSAFGNNTKGLPLLVSSDEVKAVADNLSKKQGKTVTPAQVILAWSQIGGHTVIPKSVTKARIAENFQEVELDDEAIAALNKLGEKPQRFNIPYTYKPRWNINLFNTEEEKAAAHTAVIKL
# Legend:
# Assay in all cases: purified protein
# Details in all cases: 160 μM NADPH, pH 6.5 phosphate, 40°C, GST fusion
# purified protein [1] = substrate: O=CC=O
# purified protein [2] = substrate: O=C[C@@H](O)CO
# purified protein [3] = substrate: CC(=O)C=O
# purified protein [4] = substrate: O=C[C@@H](O)[C@H](O)CO
protein,measurement,setting,value
B1,Km,purified protein [1],102.74 ± 9.76 µM
same,kcat,purified protein [1],18.8 s⁻¹
same,kcat/Km,purified protein [1],183000 M⁻¹ s⁻¹
same,Km,purified protein [2],158.04 ± 5.00 µM
same,kcat,purified protein [2],47.9 s⁻¹
same,kcat/Km,purified protein [2],303000 M⁻¹ s⁻¹
same,Km,purified protein [3],131.86 ± 1.84 µM
same,kcat,purified protein [3],72.6 s⁻¹
same,kcat/Km,purified protein [3],550000 M⁻¹ s⁻¹
same,Km,purified protein [4],94.07 ± 2.46 µM
same,kcat,purified protein [4],29 s⁻¹
same,kcat/Km,purified protein [4],309000 M⁻¹ s⁻¹
